Data from PMC12628836, “Lactobacillus rhamnosus YQ001 binds with GII.4 human noroviruses and inhibits viral replication in zebrafish larvae” (Applied and Environmental Microbiology, 2025).

Target: recombinant C2JX39 (DNA topoisomerase 4 subunit A) (Lactobacillus rhamnosus YQ001)
Assay: ELISA; attachment factors coated at 280.0 pmol/mL in carbonate-bicarbonate buffer overnight at 4 C, blocked with 1.0% BSA; P protein (GI.1 or GII.4) 10.0 ug/mL, 1 h at 37 C; detected with anti-HuNoV monoclonal antibodies; positive when S/N >= 2.0
Settings: both partners purified

B1: GII.4 HuNoV P protein (domain or fragment)
chain: KPFTVPILTVEEMTNSRFPIPLEKLFTGPSGAFVVQPQNGRCTTDGVLLGTTQLSPVNICTFRGDVTHIAGSRNYTMNLASLNWNNYDPTEEIPAPLGTPDFVGKIQGLLTQTTKGDGSTRGHKATVYTGSAPFTPKLGSVQFSTDTENDFETHQNTKFTPVGVIQDGSTTHRNEPQQWVLPSYSGRNVHNVHLAPAVAPTFPGEQLLFFRSTMPGCSGYPNMDLDCLLPQEWVQHFYQEAAPAQSDVALLRFVNPDTGRVLFECKLHKSGYVTVAHTGQHDLVIPPNGYFRFDSWVNQFYTLAPM
S/N ratio: 16.9
